These results are taken from patent US20230192896A1 (published 2023).

First the molecules themselves.
T1: FX zymogen (UniProt P00742 41-179; P00742 183-488)
T1 chain 1: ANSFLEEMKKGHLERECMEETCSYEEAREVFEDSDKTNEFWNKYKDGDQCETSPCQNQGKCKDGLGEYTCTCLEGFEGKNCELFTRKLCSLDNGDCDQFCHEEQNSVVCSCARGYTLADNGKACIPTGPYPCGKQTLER
T1 chain 2: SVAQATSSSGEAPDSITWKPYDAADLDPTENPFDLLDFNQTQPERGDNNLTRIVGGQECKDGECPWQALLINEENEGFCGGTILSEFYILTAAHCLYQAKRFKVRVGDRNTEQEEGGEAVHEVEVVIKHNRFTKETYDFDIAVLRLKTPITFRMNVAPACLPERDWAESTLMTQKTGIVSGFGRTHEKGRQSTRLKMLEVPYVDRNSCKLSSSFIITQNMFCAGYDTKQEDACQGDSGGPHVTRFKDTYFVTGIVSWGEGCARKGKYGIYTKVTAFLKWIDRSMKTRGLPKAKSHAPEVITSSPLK

B1: BIIB-12-1294 (antibody, V domains shown)
VH: QVQLVQSGAEVKKPGASVKVSCKASGYTFTSYYMHWVRQAPGQGLEWMGIINPSGGSTSYAQKFQGRVTMTRDTSTSTVYMELSSLRSEDTAVYYCARGTRSSRDMDVWGQGTTVTVSS
VL: DIQMTQSPSTLSASVGDRVTITCRASQSISSWLAWYQQKPGKAPKLLIYKASSLESGVPSRFSGSGSGTEFTLTISSLQPDDFATYYCQQVNTFPFTFGGGTKVEIK
B2: BIIB-12-929 (antibody, V domains shown)
VH: QVQLVQSGAEVKKPGASVKVSCKASGYTFTSYYMHWVRQAPGQGLEWMGIINPSGGSTSYAQKFQGRVTMTRDTSTSTVYMELSSLRSEDTAVYYCARDQGYSRSFDIWGQGTMVTVSS
VL: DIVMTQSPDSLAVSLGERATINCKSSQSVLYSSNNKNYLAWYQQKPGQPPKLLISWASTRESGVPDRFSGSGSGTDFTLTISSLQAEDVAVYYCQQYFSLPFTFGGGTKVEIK
B3: BIIB-12-1301 (antibody, V domains shown)
VH: QVQLVESGGGVVQPGRSLRLSCAASGFTFSSYGMHWVRQAPGKGLEWVAVISYDGSNKYYADSVKGRFTISRDNSKNTLYLQMNSLRAEDTAVYYCARTGNYGRGMPYWGQGTLVTVSS
VL: EIVLTQSPATLSLSPGERATLSCRASQSVSSYLAWYQQKPGQAPRLLIYDASKRATGIPARFSGSGSGTDFTLTISSLEPEDFAVYYCQQSSSWPPTFGGGTKVEIK
B4: BIIB-12-1311 (antibody, V domains shown)
VH: QVQLVESGGGVVQPGRSLRLSCAASGFTFSSYGMHWVRQAPGKGLEWVAVISYDGSNKYYADSVKGRFTISRDNSKNTLYLQMNSLRAEDTAVYYCAKGRHYWAVWGQGTLVTVSS
VL: EIVLTQSPATLSLSPGERATLSCRASQSVSSYLAWYQQKPGQAPRLLIYDASNRATGIPARFSGSGSGTDFTLTISSLEPEDFAVYYCQQASNLPPTFGGGTKVEIK
B5: BIIB-12-1320 (antibody, V domains shown)
VH: QLQLQESGPGLVKPSETLSLTCTVSGGSISSSSYYWGWIRQPPGKGLEWIGSIYYSGSTYYNPSLKSRVTISVDTSKNQFSLKLSSVTAADTAVYYCARGSGLLVREHYYYYMDVWGKGTTVTVS
VL: DIQMTQSPSSLSASVGDRVTITCRASQSISSYLNWYQQKPGKAPKLLIYAASSLQSGVPSRFSGSGSGTDFTLTISSLQPEDFATYYCQQADDTPWTFGGGTKVEIK
B6: BIIB-12-916 (antibody, V domains shown)
VH: QVQLVQSGAEVKKPGASVKVSCKASGYTFTSYYMHWVRQAPGQGLEWMGIINPSGGSTSYAQKFQGRVTMTRDTSTSTVYMELSSLRSEDTAVYYCARGGRQKATRRVDVWGQGTVVTVSS
VL: DIQMTQSPSSLSASVGDRVTITCRASQSISSYLNWYQQKPGKAPKLLIYAASSLQSGVPSRFSGSGSGTDFTLTISSLQPEDFATYYCQQLAITPFTFGGGTKVEIK
B7: BIIB-12-1300 (antibody, V domains shown)
VH: QVQLVESGGGVVQPGRSLRLSCAASGFTFSSYGMHWVRQAPGKGLEWVAVISYDGSNKYYADSVKGRFTISRDNSKNTLYLQMNSLRAEDTAVYYCARGSKYLHAWGQGTLVTVSS
VL: DIQMTQSPSSVSASVGDRVTITCRASQGISSWLAWYQQKPGKAPKLLIYAASSLQSGVPSRFSGSGSGTDFTLTISSLQPEDFATYYCQQASSFPPTFGGGTKVEIK
B8: BIIB-12-1298 (antibody, V domains shown)
VH: QVQLVESGGGVVQPGRSLRLSCAASGFTFSSYGMHWVRQAPGKGLEWVAVISYDGSNKYYADSVKGRFTISRDNSKNTLYLQMNSLRAEDTAVYYCAKGGSDRRVGSWGQGTLVTVSS
VL: DIQMTQSPSSVSASVGDRVTITCRASQGISSWLAWYQQKPGKAPKLLIYAASSLQSGVPSRFSGSGSGTDFTLTISSLQPEDFATYYCQQTNSLPITFGGGTKVEIK
B9: BIIB-12-1295 (antibody, V domains shown)
VH: QVQLVQSGAEVKKPGASVKVSCKASGYTFTSYYMVWVRQAPGQGLEWMGIINPSGGSTSYAQKFQGRVTMTRDTSTSTVYMELSSLRSEDTAVYYCARVGGATTGKIGYGMDVWGQGTTVTVSS
VL: DIQMTQSPSSVSASVGDRVTITCRASQGISSWLAWYQQKPGKAPKLLIYAASNLQSGVPSRFSGSGSGTDFTLTISSLQPEDFATYYCQQAISLPITFGGGTKVEIK
B10: BIIB-12-1332 (antibody, V domains shown)
VH: QVQLVQSGAEVKKPGASVKVSCKASGYTFTSYYMSWVRQAPGQGLEWMGIINPSGGSTSYAQKFQGRVTMTRDTSTSTVYMELSSLRSEDTAVYYCARLGRKSRVFDIWGQGTMVTVSS
VL: DIQMTQSPSSVSASVGDRVTITCRASQGISSWLAWYQQKPGKAPKLLIYAASSLQSGVPSRFSGSGSGTDFTLTISSLQPEDFATYYCQQVNSFPLTFGGGTKVEFK
B11: BIIB-12-1303 (antibody, V domains shown)
VH: QVQLVESGGGVVQPGRSLRLSCAASGFTFSSYGMHWVRQAPGKGLEWVAVISYDGSNKYYADSVKGRFTISRDNSKNTLYLQMNSLRAEDTAVYYCARGPTSRLFQHWGQGTLVTVS
VL: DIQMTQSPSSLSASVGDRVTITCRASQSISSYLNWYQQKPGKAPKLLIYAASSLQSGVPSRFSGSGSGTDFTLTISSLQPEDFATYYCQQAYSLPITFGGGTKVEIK
B12: BIIB-12-915 (antibody, V domains shown)
VH: QLQLQESGPGLVKPSETLSLTCTVSGGSISSSRYYWGWIRQPPGKGLEWIGSIYYSGSTYYNPSLKSRVTISVDTSKNQFSLKLSSVTAADTAVYYCARVGGGYANPWGQGTLVTVSS
VL: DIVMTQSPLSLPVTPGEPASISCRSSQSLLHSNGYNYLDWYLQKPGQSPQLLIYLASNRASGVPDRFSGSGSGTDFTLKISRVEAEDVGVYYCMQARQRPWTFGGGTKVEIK
B13: BIIB-12-933 (antibody, V domains shown)
VH: QVQLVESGGGVVQPGRSLRLSCAASGFTFSSYGMHWVRQAPGKGLEWVAVISYDGSNKYYADSVKGRFTISRDNSKNTLYLQMNSLRAEDTAVYYCARLPRFTGTAYWGQGTLVTVSS
VL: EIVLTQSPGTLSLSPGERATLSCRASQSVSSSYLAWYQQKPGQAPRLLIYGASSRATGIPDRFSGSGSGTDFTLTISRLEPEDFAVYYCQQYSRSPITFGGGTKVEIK
B14: BIIB-12-904 (antibody, V domains shown)
VH: QVQLVESGGGVVQPGRSLRLSCAASGFTFSSYGMHWVRQAPGKGLEWVAVISYDGSNKYYADSVKGRFTISRDNSKNTLYLQMNSLRAEDTAVYYCARGSGRSGYHYWGQGTLVTVSS
VL: EIVMTQSPATLSVSPGERATLSCRASQSVSSNLAWYQQKPGQAPRLLIYGASTRATGIPARFSGSGSGTEFTLTISSLQSEDFAVYYCQQAFNWPPTFGGGTKVEIK
B15: BIIB-12-1322 (antibody, V domains shown)
VH: QVQLVQSGAEVKKPGASVKVSCKASGYTFTSYYIHWVRQAPGQGLEWMGIINPSGGSTSYAQKFQGRVTMTRDTSTSTVYMELSSLRSEDTAVYYCARSRQRHRGDWYFDLWGRGTLVTVSS
VL: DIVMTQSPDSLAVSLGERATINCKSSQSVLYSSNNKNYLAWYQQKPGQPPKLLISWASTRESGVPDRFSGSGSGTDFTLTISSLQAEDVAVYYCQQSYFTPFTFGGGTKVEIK
B16: BIIB-12-1327 (antibody, V domains shown)
VH: QVQLVESGGGVVQPGRSLRLSCAASGFTFSSYGMHWVRQAPGKGLEWVAVISYDGSNKYYADSVKGRFTISRDNSKNTLYLQMNSLRAEDTAVYYCAKLGLARGGGYGMDVWGQGTTVTVSS
VL: EIVMTQSPATQYVSPGERATLSCRASQSVSSNLAWYQQKPGQAPRLLIYGASTRATGIPARFSGSGSGTEFTLTISSLQSEDFAVYYCQQYHNFPPTFGGGTKVEIK
B17: BIIB-12-926 (antibody, V domains shown)
VH: QVQLVQSGAEVKKPGASVKVSCKASGYTFTSYYMHWVRQAPGQGLEWMGIINPSGGSTSYAQKFQGRVTMTRDTSTSTVYMELSSLRSEDTAVYYCARDGRMARGASPDYWGQGTLVTVSS
VL: EIVMTQSPATLSVSPGERATLSCRASQSVSSNLAWYQQKPGQAPRLLIYGASTRATGIPARFSGSGSGTEFTLTISSLQSEDFAVYYCQQHSFWPPTFGGGTKVEIK

The target in the assay is T1, FX zymogen. Put plainly: BLI. For orientation: Biolayer interferometry detects binding as a change in optical thickness at a sensor tip.
For orientation: Kd means a measure of binding affinity in units of concentration. Read a high Kd as lower affinity. As for B1, binding was put at a Kd of 37.3 nM. That is a double-digit nanomolar value.

Molecule B2 registered a Kd of 15.2 nM.

The molecule B3 returned a Kd of 65 nM. This Kd is about 4.3-fold higher than that of the molecule before.

Take B4: binding was put at a Kd of 29 nM. Against the preceding molecule, the Kd is about 2.2-fold lower.

On to B5, for which the Kd was found to be 8.27 nM.

With B6, the Kd stood at 15.6 nM.

B7 came in with a dissociation constant Kd of 48.6 nM.

With B8, the Kd worked out at 33.5 nM.

Turning to B9, binding was put at a Kd of 42.6 nM.

In the case of B10, the affinity, expressed as Kd, was 53.5 nM.

B11 yielded an equilibrium dissociation constant (Kd) of 25.9 nM. This Kd is about 2.1-fold lower than that of the molecule before.

B12 returned a dissociation constant (Kd) of 34.4 nM.

Turning to B13, the dissociation constant Kd was 50.3 nM.

With B14, the Kd was found to be 42.3 nM.

For B15, binding was characterised by a dissociation constant (Kd) of 36.1 nM.

B16 returned a Kd of 38.3 nM.

With B17, the Kd was 24 nM.
